# Test results from the DeepSol protein solubility set.
# Assay: soluble on expression in E. coli; label from the status in PepcDB or PDB records
row,Sequence,soluble on expression in E. coli
1,MASAVQAQHNVSDVSRMNVLFLMADDMRPELGCYGVEAVKTPNMDRLASSGVLFQNAYCNVPVSGASRASLLTGVYPHYPDRFVNFSAYASKDCPEAIPLSGWFTKNGYHTVSDGKVFHHMSDHAASWSEPPYRNHPDGYDVYWAEYNKWELWMNSESGKTINPKTMRGPFCESADVPDTAYDDGKLAERAIRDLRRMKEMNKPFFLACGFWKPHLPFNAPKKYWDLYKREEIPLASNRFRPEGLPEQVRNSSEIYAYARVTDTGDADFQREVKHGYYACLSYVDAQIGKVLDALDELGLAENTIVVLLGDHGWNLGEHDFVGKHNLMDRSTHVPLIIRVPGMKKGKTRSMVEFVDLYPTLCELCQIPQPAEQLDGQSFAKVFSNLKAKTKDEVYIQWEGGDNAVDQRFSYAEWMKGDVKKASMLFDHRIDKEENKNRVNEKKYKSKVESLSSFIKVKKSSLKKLEHHHHHH,not soluble
2,MNSALDFAFPATFPVKSSSVGGHRIASPGFSSRLRLCSLPPSSSIKAESCLKRDVHRQRSSLESMFCYDKPIPEEIIEEPVGLSMSEREIGDNQRCTCCEAKGALLCSTCSGTGLYVDSIMESQGIIVKVRCLGCGGSGNIMCKLCGGRGHVGH,not soluble
3,MKALSKLKAEEGIWMTDVPVPELGHNDLLIKIRKTAICGTDVHIYNWDEWSQKTIPVPMVVGHEYVGEVVGIGQEVKGFKIGDRVSGEGHITCGHCRNCRGGRTHLCRNTIGVGVNRPGCFAEYLVIPAFNAFKIPDNISDDLAAIFDPFGNAVHTALSFDLVGEDVLVSGAGPIGIMAAAVAKHVGARNVVITDVNEYRLELARKMGITRAVNVAKENLNDVMAELGMTEGFDVGLEMSGAPPAFRTMLDTMNHGGRIAMLGIPPSDMSIDWTKVIFKGLFIKGIYGREMFETWYKMAALIQSGLDLSPIITHRFSIDDFQKGFDAMRSGQSGKVILSWD,soluble
4,MGIMADRLASMVVKATSPDGQIEGELRDRDAVSVAFRGDTYRHYTEYSLGTQLSRLALRMWTGYQRGYDEAVAEATGRPVSRSQETWDANRRRFRQEQAATTVTGMSTDGWIYIQNTGMTSWHVVIRQGTLSKLDEDQFVAELMDAYNTMITEYRFATADLRAKHYGVSFQPRNPPVKELRA,not soluble
5,MSLRNMSIINSTPVRVIAIVGCDGSGKSTLTASLVNELAARMPTEHIYLGQSSGRIGEWISQLPVIGAPFGRYLRSKAAHVHEKPSTPPGNITALVIYLLSCWRAYKFRKMLCKSQQGFLLITDRYPQVEVPGFRFDGPQLAKTTGGNGWIKMLRQRELKLYQWMASYLPVLLIRLGIDEQTAFARKPDHQLAALQEKIAVTPQLTFNGAKILELDGRHPADEILQASLRAIHAALSEGHHHHHH,soluble
6,MAHHHHHHMKRPWGESVGTQSNHTRTDGVQEPSASAELAASANDDTQVRSDGRNVRVRSSGSPRTIDTGNGGGSTVVSPQRQLSDQRLPQASSRHELLEGTSEFLLRTEGNIPCSFGNVPKDSIGYESQCCWNLYNNTGTTHYEPPWRTCLAVEKNRENPYYLPWLDSMKIPPLDELLSKVDERKSKAATSGDVDSGTNDSNVKDGSTKHAD,soluble
7,MGSDKIHHHHHHMNDYLDDYEFNNLDFYRKNHGLQLYYNWSGEICWQETPDKPQEKLFSIIGMNATKVFLKPDPEHGEVGYRINRELGLFCDPDTQEILHSWKSPTASQPVPVVHIANRIVQGSVKPKKFVIPKGKGYITSVMEIPLEYPHPLAGDSKYLDYCPGEKFKGVEYFISNTCRPDATEVPPAKWARDCPWMPWMKLGYAHPAKLRFETTIFRVDSFEQLHPSLVNLVREKVPIYEFTPTESDEPNVTSIQYFKKNFESYLRGDIFPLEERY,not soluble
8,MGSDKIHHHHHHMSHITDIAYKNWIVELKSKIRSSQVKASLAINAALIEFYWDLGKMIAEKQTAWGTKFIEQVSHDLQVEFPEMKGLSTTNLKYCRSFYLFYQNAIGQQAVAQLPVTPNVQQGVGEISQQSVDQLQHIEKQVNVFGQQFVAQIPWGHNILIFTKSKSYTEAQFYLQQTISNAWGRETLALQIKSQLFERQGKAITNFKQTLPEPLSDLAQQTLKDPYNFDFVNMAGTMKEKDLEKQLITHISKFLLELGKGFAFVGQQYHLEIAENDYYLDLLFYHIKLKCYVVIELKNTKFVPEYTGKMNFYLSAVDTLLKQDDDKPTIGILLCRDKNNIEAEFALRDINKPIGISEFSFTEILPENLKSSLPTVEELENELQHLTNDTDEN,not soluble
9,METTHSLTTDNAPTEDQPILSVTDLHMVSGTHLPELKIYAGLSLVHCGRENSATTLSMTLAGRMKPISGTIELKVQDSDKVLTTPRQLHKAVALAGVPELDSLERLVPVTAAVREQLAWSQPWYRRVPRDVTKSETFINAAKLLDLPNSKEFARQSIGDLDPLTRFRLRIALALIARPHTDLLIVDDIDQIRSLRLRADLLRELKNIAASIPVVAMSANDDVDKIADHEIHVAGALQRKQKAKA,not soluble
10,MSLSHLLELYINFKGEAKEAIAFYEDVFDTKCQNLMTFGEAPEDPEHPINDEIKDLVMNASIIIEGTYVMISDVPDMFGFEVTEGNNLSLVVSTDDDEKIDRLFKRLSEGGTVTMPFLKLFGPKSMVPEGGSHHHHHH,soluble
11,MNSVGEACTDMKREYDQCFNRWFAEKFLKGDSSGDPCTDLFKRYQQCVQKAIKEKEIPIEGLEFMGHGKEKPENSSLEHHHHHH,not soluble
12,MQKDALNNVRITDEQVLMTPEQLKAAFPLSLAQEAQIAQSRGIISDIIAGRDPRLLVVCGPCSIHDPETALEYARRFKALAAEVSDSLYLVMRVYFEKPRTTVGWKGLINDPHMDGSFDVEAGLKIARQLLVELVNMGLPLATEALDPNSPQYLGDLFSWSAIGARTTESQTHREMASGLSMPVGFKNGTDGSLATAINAMRAAAQPHRFVGINQAGQVALLQTQGNPHGHVILRGGKAPNYSPADVAQCEKEMEQAGLRPSLMVDCSHGNSNKDYRRQPAVAESVVAQIKDGNRSIIGLMIESNIHEGNQSSEQPRSEMKYGVSVTDACISWEMTDALLREIHKDLSGQLAVRVA,not soluble
13,HHHHHHSSGLVPRGSHMGGTGSGMTPGEAWKKQLNKLGKTQFEQYKRSCILEVDRTHARDSLENGIQNGIAVSRGSAKLRWMEERGYVKPTGIVVDLGCGRGGWSYYAASLKNVKKVMAFTLGVQGHEKPIMRTTLGWNLIRFKDKTDVFNMEVIPGDTLLCDIGESSPSIAVEEQRTLRVLNCAKQWLQEGNYTEFCIKVLCPYTPLIMEELSRLQLKHGGGLVRVPLSRNSTHEMYWVSGTRTDVVGTVSNVSRLLTRRMLNKPQPPTLEDDVILDMGTR,soluble
14,MSEDQMKQQLVIDQKAVKETLQQMLTSDQGKKFWESALKDPKFAESFAKGLQAEHEKMMKALMKDPDYQALMIDILKDPEMEKAMVDVLKSKEFRQHLQKVITETLNSPLYQAKIQDMLMKAAEKVQQGGEKQEEEGGGEGGEGEGEESTGNQQGGGG,not soluble
15,MGSDKIHHHHHHMIDAFVRIGPLMDPASYPQWAQQLIEDCRESKRRVVEHEFYARLRDGQLKQSTIRQYLIGGWPVVEQFSLYMAHNLTKTRYGRHQGEDMARRWLMRNIRVELNHADYWVNWCQAHGVHLHELQAQEVPPELNGLNDWCWRVCATENLAISMAATNYAIEGATGEWSAVVCSTDTYAQGFPEEGRKRAMKWLKMHAQYDDAHPWEALEIICTLAGENPTLGLRTELRRAICKSYDCMFLFLERCMQLEGRQQGRMRPALAAG,not soluble
16,MDKIRYGIMSTAQIVPRFVAGLRESAQAEVRGIASRRLENAQKMAKELAIPVAYGSYEELCKDETIDIIYIPTYNQGHYSAAKLALSQGKPVLLEKPFTLNAAEAEELFAIAQEQGVFLMEAQKSVFLPITQKVKATIQEGGLGEILWVQSVTAYPNVDHIPWFYSREAGGGALHGSGSYPLQYLQYVLGKEIQEVTGTATYQQGATDSQCNLALKFAEGTLGNIFINVGLKIPSEMTICGTKGQIVIPNFWKTDCAYYTDAQGNTVKWSEQFTSEFTYEINHVNQCLQDKKLTSPVMTKELTIATVKIVESFYQEWFDNE,not soluble
17,MGNKLFVLDLGEIRVDENFIIANSTFVTPQKPTVSSRLIDIPVSAYLIQCTDATVLYDTGCHPECMGTNGRWPAQSQLNAPYIGASECNLPERLRQLGLSPDDISTVVLSHLHNDHAGCVEYFGKSRLIAHEDEFATAVRYFATGDHSSPYIVKDIEAWLATPRNWDLVGRDERERELAPGVNLLNFGTGHASGMLGLAVRLEKQPGFLLVSDACYTATNYGPPARRAGVLHDTIGYDRTVSHIRQYAESRSLTVLFGHDREQFASLIKSTDGFYE,soluble
18,MAHHHHHHMEMHATHVAACSLRRLRSSAVTSRVMTSTHLSLPCRLKSYVLKFLRGQLPEDLKDLNGALGCLYGTLPDVDEFGQFVIAPEIVERFHQLGYIKLPRPVLDAQQVDKLADEVNELANNVEHHPKTEKLYATSLANLTEGPLFYCQGQWRAAWGMHDLIYLPTITVAASQILGNSIVRLWYDEVFMKEARKGPCVPWQQNYARWQHTTPVNHVTVMIALDTMNKDRGAPCLVPGSHRWREGGLLPSVPYDPAKDEAQQLNTIWEITNEEESEMLMDTPPATVDMKRGEALLIHPLTLFATHGNRSLDAVRCCFIHYMGGKTYATQNGPLLPHTTQFQAGAMIQGPFYPVVFDPAMTEELAMLPGESAAQKDITEEV,soluble
19,MSFFDELKTSLEEAVEIKQGLKEPARVTRYEIADVKAIREQLNVSQSEMAKALGTSVDTIKSWESKRRNPTGLAAKVLATIKENPAFFRELASH,not soluble
20,MAKEVWRFIDSGYCPPAFNMALDEALLDWHSEGKIPPTIRFYGWNPPTLSIGYFQKVEKEIDLEAVKRHGLGFVRRPTGGRGVLHDKELTYSVIVSESHPAMPKTVTEAYRVISQGILEGFRYLGLDAYFAVPRTEEEKADLRSPRSAVCFDAPSWYELVVEGRKIAGSAQTRQKGVILQHGSILLDLDEDLLFSLFKYPNERVKERLQRDFKKKAVAINELTSRTVTIEEAKEAFYKGFEKGLNIVLEPYTLTAEERAYVEELARTKYESDEWNFKR,not soluble
21,MIAITGASGQLGRLVIAQLLEKVPASDIVALVRDVNKVADLSAKGVQVKAADYNQPEALAFALQGVDKVLLISSSEVGQRAAQHRNVIEAAVKAGVKLVAYTSLLHADKSPLALAEEHRQTEALLKDSGLPHVLLRNGWYTENYAASIPAALEHGVFIGSAGEGKITSATREDFAAAAVAVLTQEGQAGKVYELAGDEPYTLVELAAEISKQSGKSIGYQNLSGAEFTAALVSAGLPDVFAQIIADSDVGASKGGLFDGGKHLSQLIGRPTTPLSAVVKATLKLEHHHHHH,not soluble
22,GSMKPYKELERVFTKLYRYGHMLLLADWDSHTMMPCKGSDARGAAMAELQLHMHDTITAPKIRALIEEAEKSVGDLEKLQRANLREMRRAWELENLLPEEFVERKTVLTTKAHQVWKTCREKNDFAGFLPTLKELIALFREEGKLRAGNSGKHPYEALVDIYEPGMTLQRLDEIFGNVRSWLPELLKEVQEKQKALGETVLEPKGPFPVSKQEALCRFFMDVWKFDFDGGRLDVSAHPFCGNSKEDVRITTKYTETEFVTSLLGVIHETGHAKYEQNCGPKGFETQPVCMARSLGVHEGQSLFAEMQIGRSGAFMEFLAPRLVEYFGDQPAFTSSNMKRVIQRVSPGLIRIDADELCYPLHVMLRYEIERDLMDGNIEAEEVPRVWNEKMKSYLGLETLGNDKEGCLQDVHWSGGMFGYFPTYSLGAMVAAQLMSCVRRELGEEVVDDCIRKGDLGKILAKQNEKIWQHGSSLTTDELLRQATGETLNPEHYRRHLERRYRDDRG,soluble
